Key:
[1] = target: T1, recombinant soluble human HLA-G β2M MHC class I complex, monomer (human); test: ELISA, biotinylated wt HLA-G monomer on streptavidin plate
T1 construct: His tagged; biotinylated where coated on streptavidin plates, non-biotinylated in SPR; also called HLA-G-0003; wt HLA-G (monomer)
Description: Streptavidin coated plates (Nunc, MicroCoat #11974998001) were coated with 25 μl/well biotinylated human wt HLA-G at a concentration of 250 ng/ml and incubated at 4° C. overnight. After washing (3×90 μl/well with PBST-buffer) 25 μl anti-HLA-G samples (1:3 dilution in OSEP buffer) or reference antibody (G233, Thermo/Pierce #MA1-19449, 500 ng/ml) were added and incubated 1 h at RT. After washing (3×90 μl/well with PBST-buffer) 25 μl/well goat-anti-mouse H+L-POD (Biorad #170-6561, 1:2000 in OSEP) or donkey-anti-rabbit IgG POD (GE #NA9340V, 1:5000 in OSE) was added and incubated at RT for 1 h on shaker. For detection of rat IgGs a mixture of goat-anti-rat IgG1-POD (Bethyl #A110-106P), goat-anti-rat IgG2a-POD (Bethyl #A110-109P) and goat-anti-rat IgG2b-POD (Bethyl #A110-111P) 1:10000 in OSEP was added and incubated at RT for 1 h on shaker. After washing (6×90 μl/well with PBST-buffer) 25 μl/well TMB substrate (Roche, 11835033001) was added and incubated until OD 2-3. Measurement took place on a Tecan Safire 2 instrument at 370/492 nm.
The above table summarizes the binding of different rat anti-human HLA-G monoclonal antibodies, derived from wt protein IMS. Shown are the relative EC50 values [ng/ml] of the respective binding to rec. wt monomeric, dimeric and trimeric HLA-G proteins as assessed by ELISA. The ELISA was set up by coating the biotinylated wt HLA-G antigen to strepdavidin plates. After incubation and washing steps, the respective antibodies were bound in a concentration range from 10-0 μg in 1:2 dilution steps. Detection of bound antibodies was carried out by anti-Fc-antibody-POD conjugates. EC50 values were determined from the resulting binding curves at the antibody concentrations generating the half-maximal signal. In case of the non-biotinylated HLA-G dimer and trimer antigens, immobilization was carried out by random coating on assay plates.

[2] = target: T1, recombinant soluble human HLA-G β2M MHC …; test: competition ELISA, one antibody concentration; competitor coated ILT4-Fc
Description: (§1) The ELISA was set up by coating the Fc tagged ILT2 and ILT4 respectively to Maxisorp microtiter plates. After incubation and washing steps, the respective antibodies were added at a concentration of 100 nM. Soluble His tagged monomeric, dimeric or trimeric HLA-G was added to the wells. After incubation and washing steps, detection of bound receptor was carried out by anti-His-antibody-POD conjugates.
(§2) The above tables summarize the blocking of interaction between rec. HLA-G proteins (monomer and oligomers) to its receptors ILT2 and ILT4 by the described HLAG antibodies at a concentration of 110 nM (*HLAG-0090 was tested at a concentration of 44 nM) as assessed by ELISA. Shown are the % inhibitions of the HLA-G/receptor interaction (for ILT2 and ILT4). The less pronounced ILT4 inhibition depends on the major β2M dependent interaction of this receptor.

[3] = target: T2, recombinant soluble human HLA-G β2M MHC class I complex, dimer (human); test: as above
T2 construct: Non-biotinylated; also called HLA-G Dimer; dimeric HLA-G
Description: as §1, §2

[4] = target: T3, recombinant soluble human HLA-G β2M MHC class I complex, trimer (human); test: as above
T3 construct: Non-biotinylated; also called HLA-G Trimer; trimeric HLA-G
Description: as §1, §2

[5] = target: T4, human HLA-G expressed on cells (JEG3 natural; SKOV3 HLA-G+ and PA-TU-8902 HLA-G+ transfectants) (human); test: flow cytometry, JEG3 cells pre-incubated with antibody (40 µg/ml final); competitor ILT2-Fc chimera
T4 construct: On cells HLA-G stands in an MHC class I complex with beta-2 microglobulin and peptide; these are not specified; also called cell surface HLA-G; HLAG on JEG-3 cells
Description: For analysis, JEG3 cells (ATCC HTB36) were stained with ILT2-Fc fusion proteins (control=no inhibition) with or without pre-incubation with different anti-HLA-G antibodies. For the pre-incubation with anti-HLA-G antibodies 25 μl/well of the cell suspension was transferred into a polypropylene 96-Well V-bottom plate and prechilled in the at 4° C. for 10 min. Anti HLA-G antibodies or reference antibodies (G233, MEM-G/9 or 87G) were diluted in staining buffer to a 2-fold concentration of 80 μg/ml and 25 μl/well of the antibody solution was added to the prepared cells and incubated for 1 h at 5° C. Cells were washed twice with 200 μl/well staining buffer with centrifugation at 300 g for 3 min and finally resuspended in 25 μl/well staining buffer.
The detection of human ILT2-Fc Chimera protein (RD #2017-T2-050) to a) JEG3 cells pre-incubated anti HLA-G mAb or b) untreated JEG3 cells as reference was determined as follows: Briefly, the ILT2-Fc or control human IgG (Jackson-Immuno-Research #009-000-003) were diluted in staining buffer to a 2-fold concentration of 20 μg/ml (ILT2) and 25 μl/well of the ILT2-Fc protein solution was added to the prepared cells and incubated for 2 h at 5° C. Cells were again washed twice with 200 μl/well staining buffer the human ILT2-Fcprotein was detected with fluorescent labeled anti human IgG Fc-gamma specific antibody (F(ab′)₂ Fragment Goat Anti-Human IgG, Fcγ fragment specific-FITC, Jackson-Immuno-Research #109-096-008) at a dilution of 10 μg/ml in staining buffer. Cell pellets were resuspended in 50 μl/well detection antibody. After a 1-hour incubation at 5° C. cells were washed twice with staining buffer, resuspended in 70 μl and measured at a FACS Canto II to determine ILT2 binding to JEG 3 cells.

[6] = target: T4, human HLA-G expressed on cells (JEG3 …); test: cell-based or functional assay

EC50 [1]	% inhibition of ILT4 binding [2]	% inhibition of ILT4 binding [3]	% inhibition of ILT4 binding [4]	Inhibition of ILT2 binding to Jeg3 cells [5]	% TNF release (restoration) by monocytes (different donor) co-cultured with JEG-3 wt cells, LPS; antibody 0.16 µg/ml [6]	% TNF release (restoration) by monocytes (different donor) co-cultured with JEG-3 wt cells, LPS; antibody 0.63 µg/ml [6]	% TNF release (restoration) by monocytes (different donor) co-cultured with JEG-3 wt cells, LPS; antibody 2.5 µg/ml [6]	% TNF release (restoration) by monocytes (different donor) co-cultured with JEG-3 wt cells, LPS; antibody 10 µg/ml [6]	Binder
7.35 nM	-224%	-105%	-43%	-72.9%					HLA-G-0039 (antibody, V domains shown, Human antibody from humanized OmniRat (OMT) rats) VH: EVQLLESGGGLVQPGGSLRLSCAASGFTFSSYAMNWVRQAPGKGLEWVSVISGSGVSTYYADSVKGRFTISRDNSRNTLSLQMNSLRAEDTAVYYCAKDGSYNYGYGDYFDYWGQGTLVTVSS VL: not shown
4.95 nM	-184%	-113%	-39%	-76.7%	44%	66%	59%	40%	HLA-G-0041 (antibody, V domains shown, Human antibody from humanized OmniRat (OMT) rats) VH: EVQLLESGGGLVQPGGSLRLSCAASGFTFSTYGMSWVRQAPGKGLEWVSVISGGGVSTYYADSVKGRFTISRDNSKNTLYLQMNRLRAEDTAVYYCAKDGSYNYGYGDYFDYWGQGTLVTVSS VL: not shown
				91.8%	198%	219%	233%	221%	HLA-G-0090 (antibody, V domains shown, Human antibody from humanized OmniRat (OMT) rats) VH: QVQLQQSGPGLLKPSQTLSLTCAISGDSVSSNRAAWNWIRQSPSRGLEWLGRTYYRSKWYNDYAVSVQGRITLIPDTSKNQFSLRLNSVTPEDTAVYYCASVRAVAPFDYWGQGVLVTVSS VL: not shown
7.19 nM	17%	54%	68%	95.1%	14%	44%	67%	74%	HLA-G-0031 (antibody, V domains shown, Rat monoclonal antibody obtained from CD rats) VH: QVKLMQSGAALVKPGTSVKMSCNASGYTFTDYWVSWVKQSHGKRLEWVGEISPNSGASNFDENFKDKATLTVDKSTSTAYMELSRLTSEDSAIYYCTRSSHGSFRWFAYWGQGTLVTVSS VL: AIVLNQSPSSIVASQGEKVTITCRASSSVSSNHLHWYQQKPGAFPKFVIYSTSQRASGIPSRFSGSGSGTSYSFTISRVEAEDVATYYCQQGSSNPYTFGAGTKLELK
